The labels stand for the following.
B1: SEQ ID NO: 56 (peptide)
peptide: LERYHHSVRSSLRPYTK-NH2
B2: SEQ ID NO: 40 (peptide)
peptide: LERYHHT[dA]RSSLRPYTK
B3: SEQ ID NO: 57 (peptide)
peptide: LERYHHS[dA]RSSLRPYTK-NH2
modifications: N-terminus assumed
SMILES: CC(C)C[C@H](NC(=O)[C@H](CO)NC(=O)[C@H](CO)NC(=O)[C@H](CCCNC(=N)N)NC(=O)[C@@H](C)NC(=O)[C@H](CO)NC(=O)[C@H](Cc1c[nH]cn1)NC(=O)[C@H](Cc1c[nH]cn1)NC(=O)[C@H](Cc1ccc(O)cc1)NC(=O)[C@H](CCCNC(=N)N)NC(=O)[C@H](CCC(=O)O)NC(=O)[C@@H](N)CC(C)C)C(=O)N[C@@H](CCCNC(=N)N)C(=O)N1CCC[C@H]1C(=O)N[C@@H](Cc1ccc(O)cc1)C(=O)N[C@H](C(=O)N[C@@H](CCCCN)C(N)=O)[C@@H](C)O
B4: SEQ ID NO: 16 (peptide)
peptide: LRRYHHSVRSSLRPYTK-NH2

Square brackets hold non-standard residues; d marks the D form. Ends that are not written are not given here.

For the test, the target named is SNAP tagged-CXC4 receptor labeled with terbium (Tag-lite CXCR4 cells, HEK293) (UniProt P61073). The test can be described thus: HTRF competition on Tag-lite CXCR4 HEK293 cells; competitor labelled CXCL12.
Sequence of SNAP tagged-CXC4 receptor labeled with terbium (Tag-lite CXCR4 cells, HEK293) (P61073 whole entry): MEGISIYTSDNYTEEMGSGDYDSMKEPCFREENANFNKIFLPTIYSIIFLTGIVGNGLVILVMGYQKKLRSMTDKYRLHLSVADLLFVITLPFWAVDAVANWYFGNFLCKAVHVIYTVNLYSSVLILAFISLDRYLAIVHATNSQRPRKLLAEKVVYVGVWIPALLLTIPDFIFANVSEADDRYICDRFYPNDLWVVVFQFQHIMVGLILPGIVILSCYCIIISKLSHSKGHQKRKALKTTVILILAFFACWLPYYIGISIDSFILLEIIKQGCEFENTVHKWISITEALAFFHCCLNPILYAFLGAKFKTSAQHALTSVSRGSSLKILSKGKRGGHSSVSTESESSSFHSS
On to B1, for which the IC50 was 5 nM and the Percent Inhibition of CXCR4/CXCL12 Binding (400 nM peptide) came out at 79%.

With B2, the Percent Inhibition of CXCR4/CXCL12 Binding (400 nM peptide) stood at 76%.

Consider B3, for which the IC50 was found to be 7 nM and the Percent Inhibition of CXCR4/CXCL12 Binding (400 nM peptide) was determined as 77%.

For B4, the IC50 is 573 nM and the Percent Inhibition of CXCR4/CXCL12 Binding (400 nM peptide) was -2%.

Values taken from patent US20220395553A1, “CXCR4 ANTAGONIST PEPTIDES” (COHBAR, INC., priority 2019, published 2022).
